# From patent US20230374071A1, “COMPOSITIONS FOR INDUCING URINARY VOIDING AND DEFECATION” (Dignify Therapeutics, LLC, priority 2020, published 2023)
# Starred links: 1 amine or outer side, 2 acyl side, 3 side chain; linkers in the order of their positions; H or OH if unused. Non-standard residues stand in square brackets, D forms with d. No end group written: not given here. gc = gamma constrained Gly-(R-gamma-lactam)-Leu moiety, (S)-2-((R)-3-amino)-2-oxopyrrolidin-1-yl)-4-methylpentanoyl, between Val and the C-terminal residue, CC(C)C[C@@H](C(=O)[*:2])N1CC[C@@H](N[*:1])C1=O; Nle = CCCC[C@H](N)C(=O)O; βAla = NCCC(=O)O
# T1: human neurokinin 2 receptor (human, UniProt P21452 1-398)
# T1 sequence (looked up): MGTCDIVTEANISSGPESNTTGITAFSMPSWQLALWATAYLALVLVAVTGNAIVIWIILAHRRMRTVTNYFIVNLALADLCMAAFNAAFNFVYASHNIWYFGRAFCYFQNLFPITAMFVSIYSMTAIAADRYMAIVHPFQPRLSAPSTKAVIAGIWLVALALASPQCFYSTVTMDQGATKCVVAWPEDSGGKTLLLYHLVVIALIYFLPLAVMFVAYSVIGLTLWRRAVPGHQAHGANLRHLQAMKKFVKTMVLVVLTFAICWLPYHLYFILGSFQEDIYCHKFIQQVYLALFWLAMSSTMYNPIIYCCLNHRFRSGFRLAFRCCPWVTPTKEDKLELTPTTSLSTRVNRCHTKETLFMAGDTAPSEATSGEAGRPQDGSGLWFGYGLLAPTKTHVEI
# B1: Compound E (Asp-Arg-Phe-Val-gc-Met-NH2) (peptide)
# peptide: DRFV[gc]M-NH2
# modifications: N-terminus assumed
# SMILES: CSCC[C@H](NC(=O)[C@H](CC(C)C)N1CC[C@@H](NC(=O)[C@@H](NC(=O)[C@H](Cc2ccccc2)NC(=O)[C@H](CCCNC(=N)N)NC(=O)[C@@H](N)CC(=O)O)C(C)C)C1=O)C(N)=O
# B2: Compound F (Asp-Arg-Phe-Val-gc-Nle-NH2) (peptide)
# peptide: DRFV[gc][Nle]-NH2
# modifications: N-terminus assumed
# SMILES: CCCC[C@H](NC(=O)[C@H](CC(C)C)N1CC[C@@H](NC(=O)[C@@H](NC(=O)[C@H](Cc2ccccc2)NC(=O)[C@H](CCCNC(=N)N)NC(=O)[C@@H](N)CC(=O)O)C(C)C)C1=O)C(N)=O
# B3: Compound G (Lys-Asp-Ser-Phe-Val-gc-Nle-NH2) (peptide)
# peptide: KDSFV[gc][Nle]-NH2
# modifications: N-terminus assumed
# SMILES: CCCC[C@H](NC(=O)[C@H](CC(C)C)N1CC[C@@H](NC(=O)[C@@H](NC(=O)[C@H](Cc2ccccc2)NC(=O)[C@H](CO)NC(=O)[C@H](CC(=O)O)NC(=O)[C@@H](N)CCCCN)C(C)C)C1=O)C(N)=O
# B4: Compound J (Lys-Asp-Ser-Phe-Val-(β-Ala)-Leu-Nle-NH2) (peptide)
# peptide: KDSFV[βAla]L[Nle]-NH2
# modifications: N-terminus assumed
# SMILES: CCCC[C@H](NC(=O)[C@H](CC(C)C)NC(=O)CCNC(=O)[C@@H](NC(=O)[C@H](Cc1ccccc1)NC(=O)[C@H](CO)NC(=O)[C@H](CC(=O)O)NC(=O)[C@@H](N)CCCCN)C(C)C)C(N)=O
# Biological target: T1, human neurokinin 2 receptor
# Assay: cell-based or functional assay
Binder,NK2R/NK1R selectivity ratio,"hNK2R pEC50 (intracellular calcium mobilization, FLIPR, CHO cells)"
B1,90 fold,9.71
B2,93 fold,8.6
B3,206 fold,8.11
B4,23 fold,7.88

# Biological target: T2, human neurokinin 1 receptor (human, UniProt P25103 1-407)
# T2 sequence (P25103 whole entry): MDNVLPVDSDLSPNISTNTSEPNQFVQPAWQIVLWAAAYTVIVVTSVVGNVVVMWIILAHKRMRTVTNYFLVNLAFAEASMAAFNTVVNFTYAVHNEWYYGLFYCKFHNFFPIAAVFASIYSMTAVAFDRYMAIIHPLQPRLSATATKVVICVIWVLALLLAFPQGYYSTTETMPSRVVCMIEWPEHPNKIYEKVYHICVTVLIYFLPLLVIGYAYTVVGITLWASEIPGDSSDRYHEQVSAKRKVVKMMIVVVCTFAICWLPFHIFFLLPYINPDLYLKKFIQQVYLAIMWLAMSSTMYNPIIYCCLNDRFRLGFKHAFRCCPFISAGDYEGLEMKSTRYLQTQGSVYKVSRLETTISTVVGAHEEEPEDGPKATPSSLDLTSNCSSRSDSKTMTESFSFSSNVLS
# Assay: cell-based or functional assay
row,Binder,"hNK1R pEC50 (intracellular calcium mobilization, FLIPR, CHO cells)"
1,B1,7.76
2,B2,6.63
3,B3,5.79
4,B4,6.52

# Biological target: T1, human neurokinin 2 receptor
# Assay: cell-based or functional assay
# Remark: another data set of the same source
row,Binder,maximal calcium response
1,B1,≥ 85 % maximal response compared to Neurokinin A
2,B2,≥ 85 % maximal response compared to Neurokinin A
3,B3,≥ 85 % maximal response compared to Neurokinin A
4,B4,≥ 85 % maximal response compared to Neurokinin A

# Biological target: T2, human neurokinin 1 receptor
# Assay: cell-based or functional assay
# Remark: another data set of the same source
row,Binder,maximal calcium response
1,B1,≥ 85 % maximal response compared to Substance P
2,B2,≥ 85 % maximal response compared to Substance P
3,B3,≥ 73 % maximal response compared to Substance P
4,B4,≥ 85 % maximal response compared to Substance P
